We go through one molecule from patent US20250002577A1.

Test [1] deals with LILRB1 and LILRB2 on human primary myeloid cells (monocytes, M0 and M2c macrophages, mDCs, neutrophils). Kind of test: flow cytometry, monocytes, AF647-labelled antibody, mean of two subjects. For orientation: In flow cytometry, cells or beads pass a laser one at a time.
Test [2] shares this target. Kind of test: flow cytometry, M0 macrophages, AF647-labelled antibody, mean of two subjects.
For test [3] the target is unchanged. Briefly: flow cytometry, M2c macrophages, AF647-labelled antibody, mean of two subjects.

What is called EC50 is the concentration that produces a half-maximal response. A lower EC50 goes with greater potency.

B1: Comp 1 (anti-LILRB1 antibody) (antibody, human IgG1, kappa, V domains shown)
VH: QVQLKESGPGLVAPSQSLSITCTVSGFSLTNYGVSWVRQPPGKGLEWLGIIWGDGSTNYHSALISRLSISKDNSKSQVFLKLNSLQADDTATYYCAKPNWDTYAMDFWGQGTSVTVSS
VL: DIQMTQTTSSLSASLGDRVTISCRASQDISNFLNWYQQKPDGTVKLLIYCTSKLHSGVPSRFSGSGSETDYSLTISNLEQEDIATYFCQQGNTLPPTFGGGTKLEIIR
Take B1: the results for the EC50 in test [1], in test [2] and in test [3] were 0.823 µg/mL, 0.0937 µg/mL and 0.0862 µg/mL, respectively.
